Holding throughout (conditions): both partners purified
For test [1], the target named is T1, Nsa2 on the pre-60S particle (S. cerevisiae (endogenous in the yeast …, UniProt P40078 1-261)).
T1 construct: Nsa2 of S. cerevisiae; only His20 to Lys74 seen as density; source: endogenous, on pre-60S particles purified via Bud20-TAP from S. cerevisiae
T1 sequence (looked up): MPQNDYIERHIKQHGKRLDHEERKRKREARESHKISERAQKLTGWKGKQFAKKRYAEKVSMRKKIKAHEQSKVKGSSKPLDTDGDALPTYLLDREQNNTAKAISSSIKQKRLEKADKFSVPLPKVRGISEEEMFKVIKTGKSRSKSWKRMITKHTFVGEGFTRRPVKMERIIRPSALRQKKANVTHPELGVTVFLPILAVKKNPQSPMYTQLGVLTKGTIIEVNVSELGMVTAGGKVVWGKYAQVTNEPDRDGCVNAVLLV
Kind of test: cryo-EM structure; purified Drg1 (1.75 mg/ml, 12 µM) mixed 1:1 with 200 nM export-competent Bud20-TAP pre-60S particles, 2 mM ATPγS, 10 minutes; particle-bound Drg1 and free Drg1 hexamers picked from the same dataset.

For test [2], the target named is T2, Drg1 (diazaborine resistance gene 1), wild type, purified (S. cerevisiae, UniProt P32794 1-780).
T2 construct: Drg1 (AFG2), hexameric type-II AAA-ATPase of S. cerevisiae, wild type; Hexamer in the cryo-EM maps; also called DRG1 (AFG2); AAA-ATPase Drg1; source: overexpressed in yeast as GST fusion (CuSO4-induced), purified on GSH-agarose, eluted by Prescission protease cleavage
T2 sequence: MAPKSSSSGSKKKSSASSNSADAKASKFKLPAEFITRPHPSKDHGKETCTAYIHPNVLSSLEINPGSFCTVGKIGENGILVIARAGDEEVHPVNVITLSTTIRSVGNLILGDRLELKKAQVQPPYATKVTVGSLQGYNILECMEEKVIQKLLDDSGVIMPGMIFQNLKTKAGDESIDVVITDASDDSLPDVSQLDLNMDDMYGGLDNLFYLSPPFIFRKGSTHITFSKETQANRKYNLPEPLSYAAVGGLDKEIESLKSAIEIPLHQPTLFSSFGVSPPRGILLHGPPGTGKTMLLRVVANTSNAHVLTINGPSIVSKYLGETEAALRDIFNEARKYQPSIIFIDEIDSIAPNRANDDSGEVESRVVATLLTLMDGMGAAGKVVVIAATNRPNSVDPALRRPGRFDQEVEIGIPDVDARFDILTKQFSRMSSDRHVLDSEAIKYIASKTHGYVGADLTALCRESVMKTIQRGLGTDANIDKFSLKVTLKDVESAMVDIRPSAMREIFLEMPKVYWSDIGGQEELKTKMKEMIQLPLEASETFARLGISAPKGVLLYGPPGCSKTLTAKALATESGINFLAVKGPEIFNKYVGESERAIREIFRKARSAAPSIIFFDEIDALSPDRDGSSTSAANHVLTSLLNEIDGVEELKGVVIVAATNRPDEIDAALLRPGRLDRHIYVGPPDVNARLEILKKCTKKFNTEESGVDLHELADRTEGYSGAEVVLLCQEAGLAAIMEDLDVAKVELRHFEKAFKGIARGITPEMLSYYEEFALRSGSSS
Description: pull-down; GST-tagged bait on GSH-agarose beads; 80 µg Drg1 in 120 µl binding buffer (20 mM HEPES-KOH, 150 mM potassium acetate, 5 mM magnesium acetate, 0.1% Tween-20, 1 mM DTT, pH 6.8); 1 mM ATP or ATPγS or no nucleotide; 60 minutes, room temperature.

For test [3], the target named is T3, Drg1EQ1 (E346Q), D1 Walker B variant, purified (S. cerevisiae, UniProt P32794 1-780, E346Q).
T3 construct: Drg1 (AFG2) of S. cerevisiae with the D1 Walker B exchange E346Q; source: overexpressed in yeast as GST fusion, purified on GSH-agarose, eluted by Prescission protease cleavage
T3 sequence: T2 sequence with E346Q
Described as above.

Substitutions are numbered along the chain they refer to.

B1: Mrt4 on the pre-60S particle (natural protein, UniProt P33201 1-236, looked up)
chain: MPRSKRSKLVTLAQTDKKGRENKERIFDEVREALDTYRYVWVLHLDDVRTPVLQEIRTSWAGSKLIMGKRKVLQKALGEKREEEYKENLYQLSKLCSGVTGLLFTDEDVNTVKEYFKSYVRSDYSRPNTKAPLTFTIPEGIVYSRGGQIPAEEDVPMIHSLEPTMRNKFEIPTKIKAGKITIDSPYLVCTEGEKLDVRQALILKQFGIAASEFKVKVSAYYDNDSSTVESTNINME
notes: Mrt4 of S. cerevisiae; source: endogenous, on pre-60S particles purified via Bud20-TAP from S. cerevisiae
B1: in test [1], the binding result is reported as “binds”.

B2: GST-Arx1 (natural protein, S. cerevisiae)
chain: MALAISHEDTQILLKDKNILQESVLNKYRTAGQIAQTALKYVTSLINDSYHSKTTQRQLTVPELCLLTDSFILTRLEQYYKNKVNERGIAIPTTIDIDQISGGWCPEIDDTQNLLNWNKGKDSTFASSVTGTLRPGDLVKITLGVHIDGYTSEVSHTMVIYPVDETKPILQPTGPLLGGKADAVAAAHIAMETVVALLACALTPEKLPASLGGTSSGITGQLIRTIVDTIARSYNCGVVPGSRVRRIRRFLAGQNEGIVAEREYKGVVWTESHQEADLLSNTDAKDLTVVDRGQSTPFTNVSAIPSDDFVVQSGEVYLIDLKMASLEHCTKKGLVTLETVDSYTGKSHKAGELIARPGAYVRDFAQTHILKLKTSRQLLTKIDKQGVYPFKLSHLSSNFPFVHENEEELQSLKKDLKSFRLGMSEISNNYLCVESPIQIARWVPWDHILKATNPNGNLSYDATSTLTLPGHELPLPKLGVSAIKLKSLMNSTKESISLPVARECNTIVLCDSSVSTTDRPELLRLTGGSKTCQPSWIHSQHELNPQDSIVQGIFQLATLAKDKRFGLLLKETQPMKQKSVETSNGGVEETMKM
notes: Arx1 of S. cerevisiae; not shown: GST, N-terminal, kept
B2: the binding result in test [2] and in test [3] was “binds” in each case.

(Values after PMC9507969, “Visualizing maturation factor extraction from the nascent ribosome by the AAA-ATPase Drg1” (Nature Structural & Molecular Biology, 2022).)
